This is an account of results in patent US20220177583A1.

For experiment [1], the target named is human CLDN6 fused to GFP, expressed on engineered HEK293T cells (human) (UniProt P56747). In words: FACS on 293T CLDN6 mGFP Clone A11 cells, scFv followed by secondary antibody; number from the data table under the bars.
The target of experiment [2] is CLDN3/4 endogenously expressed on LS513 and MCF7 cells. In words: FACS dose curve, labelled mAb, MCF7 cells.
For experiment [3] the target is unchanged. In words: FACS dose curve, labelled mAb, LS513 cells.
The target of experiment [4] is human CLDN6 fused to GFP, expressed on engineered HEK293T cells (human) (UniProt P56747). The experiment can be described thus: FACS dose curve, labelled mAb, HEK293T-CLDN6-mGFP cells.
Experiment [5] has the same target. The experiment can be described thus: KinExA 4000, cell-based equilibrium titration; Cell Model HEK293T CLDN6-mGFP A11, Cells Detached by Versene; Equilibrium Curves 500pM, 10nM.
The target is the same in experiment [6]. The experiment can be described thus: FACS, 293T clone with human CLDN6, 1.5 ug Ab. On the technique in general: Flow cytometry measures light scatter and fluorescence of single cells or particles in a stream.
Experiment [7] shares this target. In words: FACS, 293T clone with human CLDN6, 0.3 ug Ab.

B1: AB3-7 scFv (scFv)
scFv: DIQMTQSPSSLSASVGDRVTITCRISENIYSYLAWYQQKPGKAPKLLVYNAKILVEGVPSRFSGSGSGTDFTLTISSLQPEDFGTYYCQHHYTVPWTFGQGTKLEIKGGGGSGGGGSGGGGSEVQLLESGGGLVQPGGSMRLSCAASGFTFSNYWMNWVRQAPGKGLEWVAQIRLKSDNYATHYADSVKGRFTISRDDSKNTVYLQMNSLRAEDTGVYYCNDGPPSGSWGQGTLLTVSS
Turning to B1, the FL4H Singlets in Viable cells in experiment [1] is 132000.

B2: AB13 (antibody, V domains shown)
VH: QVQLQQSGAELVRPGTSVKVSCKASGYAFSNYLIEWVKQRPGQGLEWIGVINPGSGGTNYNEKFKGKATMTADKSSSTAYMHLSNLTSEDSVVYFCARSYFGRSYPYTMDYWGQGTSVTVSS
VL: EIVLTQSPTTMAASPGEKITITCSASSSISSNYLHWYQQKPGFSPKLLIYRTSNLASGVPARFSGSGSGTSYSLTIGTMEAEDVATYYCQQGSSIPLTFGAGTKLELK
Regarding B2, the values for the concentration giving a half-maximal response (EC50) in experiment [2], in experiment [3] and in experiment [4] were 5 µM, 1.59 µM and 5 µM, respectively.

B3: AB17 (antibody, V domains shown)
VH: QVQLQQSGAELAKPGASVKMSCKASGYTFTGYWMHWVKQRPGQGLEWLGYINPSTGYTESNQKFKDKATLTADKSSTTAYMQLRSLTPEDSAVYYCAREGITTVLVDYWGQGTTLTVSS
VL: QIVLTQSPAIMSASLGERVTMTCTASSSVSSSYLHWYQQKPGSSPKLWIYSTSNLASGVPARFSGSGSGTSYSLTISSMEAEDAATYYCHQYHRSPPTFGAGTKLELK
As for B3, the concentration for a half-maximal effect (EC50) (as a rule, the concentration giving half of the maximal effect) in experiment [2] was 5 µM; in experiment [3] it was 5 µM; in experiment [4], 2.65 µM.

B4: AB18 (antibody, V domains shown)
VH: QVQLKQSGPELEKPGASVKISCKASGYSFTGYNMNWVKQSNGKSLEWIGNIDPYYGGSTYNQKFTGKATLTVDKSSSTAYMQLKSLTSEDSAVYYCARERSGYVFSAMDYWGQGTSVTVSS
VL: NIMMTQSPSSLAVSAGEKVTMSCKSSQSVLFSSNQKNYLAWYQQKPGQSPRLLIYWASTRESGVPDRFTGSGSGTDFTLTISNVQAEDLAVYYCHQYLSSRTFGAGTKLELK
Turning to B4, the EC50 in experiment [2], in experiment [3] and in experiment [4] was 5 µM throughout.

B5: AB19 (antibody, V domains shown)
VH: EVQLQQSGPELVKPGGSMKISCKASGYSFTGYTMNWVKRSHGKNLEWIGLINPYNGVTTYNQNFKGKATLAVDKSSSTAYMELLGLTSEDSAVYYCTRDPLYYGYRDSTMDYWGQGTSVTVSS
VL: NIMMTQSPSSLAVSAGEKVTMSCKSSQSVLFSSNQKNYLAWYQQKPGQSPRLLIYWASTRESGVPDRFTGSGSGTDFTLTISNVQAEDLAVYYCHQYLSSRTFGAGTKLELK
Consider B5, for which the EC50 in experiment [2], in experiment [3] and in experiment [4] was 5 µM in each case.

B6: AB15 (antibody, V domains shown)
VH: DVQLVESGGGLVQPRGSRKLSCAASGFTFSSFGMHWVRQAPEKGLEWVAYISSDSRTIYYADTVKGRFTISRDNPTNTLFLQMTSLRSEDTAMYYCARDYGRTYEAYWGQGTLVTVSA
VL: NIMMTQSPSSLAVSAGEKVTMSCKSSQSVLFSSNQKNYLAWYQQKPGQSPRLLIYWASTRESGVPDRFTGSGSGTDFTLTISNVQAEDLAVYYCHQYLSSRTFGAGTKLELK
Turning to B6, the EC50 in experiment [2], in experiment [3] and in experiment [4] was 5 µM each time.

B7: AB3-7 conjugated to MC-VC-PAB-MMAE (conventional) (antibody, V domains shown)
VH: EVQLLESGGGLVQPGGSMRLSCAASGFTFSNYWMNWVRQAPGKGLEWVAQIRLKSDNYATHYADSVKGRFTISRDDSKNTVYLQMNSLRAEDTGVYYCNDGPPSGSWGQGTLLTVSS
VL: DIQMTQSPSSLSASVGDRVTITCRISENIYSYLAWYQQKPGKAPKLLVYNAKILVEGVPSRFSGSGSGTDFTLTISSLQPEDFGTYYCQHHYTVPWTFGQGTKLEIK
modifications: MC-VC-PAB-MMAE conjugated to the antibody, heterogeneous (conventional); sites not stated
Consider B7, for which, in experiment [5], the Kd (commonly the constant that tells how readily two partners part at equilibrium) came to 0.00668 µM.

B8: AB3-7 conjugated to CL2A-SN38 (D4 technology) (antibody, V domains shown)
VH: EVQLLESGGGLVQPGGSMRLSCAASGFTFSNYWMNWVRQAPGKGLEWVAQIRLKSDNYATHYADSVKGRFTISRDDSKNTVYLQMNSLRAEDTGVYYCNDGPPSGSWGQGTLLTVSS
VL: DIQMTQSPSSLSASVGDRVTITCRISENIYSYLAWYQQKPGKAPKLLVYNAKILVEGVPSRFSGSGSGTDFTLTISSLQPEDFGTYYCQHHYTVPWTFGQGTKLEIK
modifications: CL2A-SN38 conjugated to the antibody (D4); sites not stated
B8 yielded a Kd in experiment [5] of 0.00287 µM.

B9: AB3-7 conjugated to MC-VC-PAB-DXD (antibody, V domains shown)
VH: EVQLLESGGGLVQPGGSMRLSCAASGFTFSNYWMNWVRQAPGKGLEWVAQIRLKSDNYATHYADSVKGRFTISRDDSKNTVYLQMNSLRAEDTGVYYCNDGPPSGSWGQGTLLTVSS
VL: DIQMTQSPSSLSASVGDRVTITCRISENIYSYLAWYQQKPGKAPKLLVYNAKILVEGVPSRFSGSGSGTDFTLTISSLQPEDFGTYYCQHHYTVPWTFGQGTKLEIK
modifications: MC-VC-PAB-DXD conjugated to the antibody; sites not stated
For the molecule B9, in experiment [5], the Kd is 0.00342 µM.

B10: AB3-7 conjugated to MC-VC-PAB-MMAE (D4 technology) (antibody, V domains shown)
VH: EVQLLESGGGLVQPGGSMRLSCAASGFTFSNYWMNWVRQAPGKGLEWVAQIRLKSDNYATHYADSVKGRFTISRDDSKNTVYLQMNSLRAEDTGVYYCNDGPPSGSWGQGTLLTVSS
VL: DIQMTQSPSSLSASVGDRVTITCRISENIYSYLAWYQQKPGKAPKLLVYNAKILVEGVPSRFSGSGSGTDFTLTISSLQPEDFGTYYCQHHYTVPWTFGQGTKLEIK
modifications: MC-VC-PAB-MMAE conjugated to the antibody, substantially 4 drugs per antibody (D4); sites not stated
B10 had a Kd in experiment [5] of 0.00534 µM.

B11: AB3-7 (antibody, V domains shown)
VH: EVQLLESGGGLVQPGGSMRLSCAASGFTFSNYWMNWVRQAPGKGLEWVAQIRLKSDNYATHYADSVKGRFTISRDDSKNTVYLQMNSLRAEDTGVYYCNDGPPSGSWGQGTLLTVSS
VL: DIQMTQSPSSLSASVGDRVTITCRISENIYSYLAWYQQKPGKAPKLLVYNAKILVEGVPSRFSGSGSGTDFTLTISSLQPEDFGTYYCQHHYTVPWTFGQGTKLEIK
B11 displayed a Kd in experiment [5] of 0.00113 µM. The FACS signal in experiment [6] was 169000; in experiment [7] it was 106000.

B12: AB3-7 conjugated to CL2A-SN38 (conventional) (antibody, V domains shown)
VH: EVQLLESGGGLVQPGGSMRLSCAASGFTFSNYWMNWVRQAPGKGLEWVAQIRLKSDNYATHYADSVKGRFTISRDDSKNTVYLQMNSLRAEDTGVYYCNDGPPSGSWGQGTLLTVSS
VL: DIQMTQSPSSLSASVGDRVTITCRISENIYSYLAWYQQKPGKAPKLLVYNAKILVEGVPSRFSGSGSGTDFTLTISSLQPEDFGTYYCQHHYTVPWTFGQGTKLEIK
modifications: CL2A-SN38 conjugated to the antibody, heterogeneous (conventional); sites not stated
In experiment [5], B12 showed a Kd of 0.00191 µM.

B13: AB3-7 conjugated to MC-GGFG-DXD (antibody, V domains shown)
VH: EVQLLESGGGLVQPGGSMRLSCAASGFTFSNYWMNWVRQAPGKGLEWVAQIRLKSDNYATHYADSVKGRFTISRDDSKNTVYLQMNSLRAEDTGVYYCNDGPPSGSWGQGTLLTVSS
VL: DIQMTQSPSSLSASVGDRVTITCRISENIYSYLAWYQQKPGKAPKLLVYNAKILVEGVPSRFSGSGSGTDFTLTISSLQPEDFGTYYCQHHYTVPWTFGQGTKLEIK
modifications: MC-GGFG-DXD conjugated to the antibody; sites not stated
In turn, B13 had a Kd in experiment [5] of 0.00301 µM.

B14: AB3-7 conjugated to MC-GGFG-MMAE (D4 technology) (antibody, V domains shown)
VH: EVQLLESGGGLVQPGGSMRLSCAASGFTFSNYWMNWVRQAPGKGLEWVAQIRLKSDNYATHYADSVKGRFTISRDDSKNTVYLQMNSLRAEDTGVYYCNDGPPSGSWGQGTLLTVSS
VL: DIQMTQSPSSLSASVGDRVTITCRISENIYSYLAWYQQKPGKAPKLLVYNAKILVEGVPSRFSGSGSGTDFTLTISSLQPEDFGTYYCQHHYTVPWTFGQGTKLEIK
modifications: MC-GGFG-MMAE conjugated to the antibody (D4); sites not stated
Consider B14, for which the dissociation constant (Kd) in experiment [5] came to 0.00101 µM.

B15: AB14 (antibody, V domains shown)
VH: QVQLQQSGPELVRPGVSVKISCKGSGYTFTDYAMHWVKQSHAKSLEWIGVISTYSGNTNYNQKFQDKATMTVDKSSSTAYMALARLTSDDSAIYYCARRGDYSLYAMDYWGQGTSVTVSS
VL: DIVLTQSPASLAVSLGQRATISCKASQSVDYDGDNYVNWYQQKVGQPPKLLISAASNLESGIPARFSGSGSGTDFTLNIHPVEEEDAATYYCQQSNEDPFTFGSGTKLEIK
In the case of B15, the concentration for a half-maximal effect (EC50) was found to be 0.546 µM in experiment [2], 1.16 µM in experiment [3] and 5 µM in experiment [4].

B16: AB1-11 scFv (scFv)
scFv: DIQLTQSPSSLSASVGDRVTMTCTASSSVSSTYFHWYQQKPGKAPKLWIYSTSNLASGVPSRFSGSGSGTDYTLTISSMQPEDAATYYCHQYHRSPLTFGQGTKLEIKGGGGSGGGGSGGGGSQVQLVQSGAEVKKPGASVKMSCKASGYTFTTYTMHWVRQAPGQGLEWIGFINPSSGYTDYAQKFQGRVTLTADKSTSTVYMELSSLRSEDTAVYYCANGDYYVAYWGQGTLVTVSS
B16 yielded an FL4H Singlets in Viable cells in experiment [1] of 125000.

B17: AB12 (antibody, V domains shown)
VH: EVKLMESGGDLVKPGGSLKLSCAASGFTFSSYAMSWVRQTPEKRLEWVASIRSGGTTYYPDSVKGRFTISRDNARNILYLRMSSLRSEDTAIYYCAKVGGNPYPMDYWGQGTSVTVSS
VL: DIQMIQSPSSMFASLGDRVSLSCRASQDIGGNLDWYQQKPGGTIKLLIYSTSNLNSGVPSRFSGSGSGSDYSLTITSLESEDFADYYCLQRNAYPLTFGAGTKLELK
For the molecule B17, the EC50 in experiment [2] turned out to be 5 µM; in experiment [3], 2.27 µM; in experiment [4], 5 µM.
